From patent publication US20240392020A1 (JIANGSU HENGRUI PHARMACEUTICALS, published 2024)
Positions count from the first letter of the chain named. Where two headings read alike, the source gives them in different places. Blank lines part the entries; values can stand above or below the binder they belong to.

How the values were obtained:
hP40 = biological target: T1, hP40 (human, UniProt P29460 23-328); experiment: ELISA
T1 construct: bought
T1 sequence (looked up): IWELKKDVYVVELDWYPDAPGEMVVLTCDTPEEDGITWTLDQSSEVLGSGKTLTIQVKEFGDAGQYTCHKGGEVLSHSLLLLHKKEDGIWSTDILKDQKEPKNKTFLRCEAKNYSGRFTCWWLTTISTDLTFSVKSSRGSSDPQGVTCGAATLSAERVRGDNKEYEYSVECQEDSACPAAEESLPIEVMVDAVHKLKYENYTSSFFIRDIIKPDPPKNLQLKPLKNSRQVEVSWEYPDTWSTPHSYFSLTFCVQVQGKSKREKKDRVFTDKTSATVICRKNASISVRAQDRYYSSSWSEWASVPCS
Method: (§1) For an antibody targeting a soluble protein, the binding activity of the antibody against the soluble protein was detected by ELISA. […] After the blocking was completed, the blocking solution was discarded; and the plate was washed 3 times with a PBST buffer (pH 7.4, PBS containing 0.1% tween-20). 100 μL of the antibody solution diluted in a gradient was added to each well, and the mixture was incubated at 37° C. for 1 h. After the incubation was completed, the plate was washed 3 times with PBST. […] The plate was washed 3 times with PBST. […] The reaction was stopped by adding 50 μL of 1 M H₂SO₄ to each well. The absorbance values at 450 nm were read on a microplate reader, the binding curves of the antibodies to an antigen were fitted with software, and the EC₅₀ values were calculated.

hBAFF = biological target: T2, hBAFF (human, UniProt Q9Y275 134-285); experiment: ELISA
T2 construct: bought
Method: as §1

human TIGIT-his = biological target: T3, human TIGIT-his (human, UniProt Q495A1 22-141, limits assumed); experiment: SPR Biacore T200, antibody captured on Protein A chip
T3 construct: bought; also called hTIGIT
T3 sequence (looked up): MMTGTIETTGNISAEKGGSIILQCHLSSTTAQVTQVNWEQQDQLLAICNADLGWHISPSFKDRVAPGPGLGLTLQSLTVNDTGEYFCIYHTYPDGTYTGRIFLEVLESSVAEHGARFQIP
Method: (§2) After dissociation was completed for each cycle, the biosensor chip was washed with 10 mM Gly-HCl at pH 1.5 for regeneration. Data were fitted using a 1:1 model.

CEA on MKN45 cells [1] = biological target: T4, CEA on MKN45 cells (UniProt P06731 35-685); experiment: FACS, MKN45 cells
T4 construct: whole, on cells
T4 sequence (looked up): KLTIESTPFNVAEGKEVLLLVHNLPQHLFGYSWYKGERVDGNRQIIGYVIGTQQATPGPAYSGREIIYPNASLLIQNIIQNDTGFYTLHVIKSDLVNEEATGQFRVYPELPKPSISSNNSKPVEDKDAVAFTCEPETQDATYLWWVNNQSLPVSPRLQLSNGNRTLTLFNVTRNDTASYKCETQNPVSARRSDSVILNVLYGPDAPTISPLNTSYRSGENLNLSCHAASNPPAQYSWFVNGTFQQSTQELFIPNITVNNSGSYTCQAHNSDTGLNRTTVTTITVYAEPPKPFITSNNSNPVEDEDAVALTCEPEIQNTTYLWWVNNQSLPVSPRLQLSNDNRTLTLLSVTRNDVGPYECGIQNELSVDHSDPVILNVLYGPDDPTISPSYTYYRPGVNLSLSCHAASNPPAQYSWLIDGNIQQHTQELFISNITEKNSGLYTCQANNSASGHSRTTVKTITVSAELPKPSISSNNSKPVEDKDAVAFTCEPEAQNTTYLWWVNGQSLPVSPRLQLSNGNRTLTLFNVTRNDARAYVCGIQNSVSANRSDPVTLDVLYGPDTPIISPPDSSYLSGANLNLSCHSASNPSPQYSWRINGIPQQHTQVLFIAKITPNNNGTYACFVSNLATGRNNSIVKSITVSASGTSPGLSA

CEA on MKN45 cells [2] = biological target: T4, CEA on MKN45 cells; experiment: FACS, MKN45 cells; remark: listed apart in the source
hB7H3 antigen protein = biological target: T5, hB7H3 antigen protein (human, UniProt Q5ZPR3 29-461); experiment: SPR Biacore T200, antibody captured on Protein A chip
T5 construct: prepared in the laboratory
T5 sequence: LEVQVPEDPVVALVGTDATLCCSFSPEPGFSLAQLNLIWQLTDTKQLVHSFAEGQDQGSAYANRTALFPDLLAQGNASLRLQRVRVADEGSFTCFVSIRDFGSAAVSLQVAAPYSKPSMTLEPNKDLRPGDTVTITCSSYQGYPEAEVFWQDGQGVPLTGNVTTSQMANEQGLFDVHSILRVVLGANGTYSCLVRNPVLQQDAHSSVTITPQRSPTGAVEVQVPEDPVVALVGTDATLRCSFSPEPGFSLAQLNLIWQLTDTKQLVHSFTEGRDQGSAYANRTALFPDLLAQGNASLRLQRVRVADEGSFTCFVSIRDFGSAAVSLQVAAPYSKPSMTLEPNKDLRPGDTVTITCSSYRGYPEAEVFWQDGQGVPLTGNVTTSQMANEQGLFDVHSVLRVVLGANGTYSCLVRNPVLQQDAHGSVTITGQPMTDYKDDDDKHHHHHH
Method: The affinity of a test antibody for an antigen protein was determined by using a Biacore T200 (GE) instrument. […] The data obtained from the experiment was fitted with BIAevaluation version 4.1, GE software using a (1:1) Langmuir model to obtain affinity values.

[3] = biological target: T6, B7H3 on the recombinant cell line CT26-B7H3 (UniProt Q5ZPR3 29-534, limits assumed); experiment: FACS, CT26-B7H3 cells
T6 construct: whole, on cells
T6 sequence (looked up): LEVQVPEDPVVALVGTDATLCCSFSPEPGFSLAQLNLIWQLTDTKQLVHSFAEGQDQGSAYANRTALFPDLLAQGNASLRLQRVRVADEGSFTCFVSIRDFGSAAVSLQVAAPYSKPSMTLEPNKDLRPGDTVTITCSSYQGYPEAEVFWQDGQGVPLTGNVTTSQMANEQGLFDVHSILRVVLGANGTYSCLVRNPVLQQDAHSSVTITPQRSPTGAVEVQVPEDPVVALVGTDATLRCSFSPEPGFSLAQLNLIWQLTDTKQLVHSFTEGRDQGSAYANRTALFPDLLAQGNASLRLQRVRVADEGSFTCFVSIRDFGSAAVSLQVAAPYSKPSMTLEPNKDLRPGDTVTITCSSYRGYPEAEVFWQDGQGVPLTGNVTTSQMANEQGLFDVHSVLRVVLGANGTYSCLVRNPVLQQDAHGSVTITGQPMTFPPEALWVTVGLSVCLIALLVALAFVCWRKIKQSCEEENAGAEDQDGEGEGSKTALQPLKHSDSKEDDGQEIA

human PDL1-his = biological target: T7, human PDL1-his (human, UniProt Q9NZQ7 19-239); experiment: SPR Biacore T200, antibody captured on Protein A chip
T7 construct: bought; also called hPDL1
T7 sequence (Q9NZQ7 19-239 limits assumed): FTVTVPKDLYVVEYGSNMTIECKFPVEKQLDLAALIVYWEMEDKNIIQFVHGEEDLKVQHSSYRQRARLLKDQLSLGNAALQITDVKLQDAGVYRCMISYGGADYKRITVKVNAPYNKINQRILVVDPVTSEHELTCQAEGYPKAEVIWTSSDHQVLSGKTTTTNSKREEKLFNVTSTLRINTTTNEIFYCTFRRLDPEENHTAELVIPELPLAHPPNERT
Method: as §2

B7: F0 (antibody, human IgG1, lambda)
heavy: not shown
light: DTVVTQEPSFSVSPGGTVTLTCGLSSGSVSTSHYPSWYQQTPGQAPRMLIYNTNTRSSGVPDRFSGSILGNKAALTITGAQADDESDYYCAIHVDRDIWVFGGGTKLTVLGQPKAAPSVTLFPPSSEELQANKATLVCLISDFYPGAVTVAWKADSSPVKAGVETTTPSKQSNNKYAASSYLSLTPEQWKSHRSYSCQVTHEGSTVEKTVAPTECS
Kd (hB7H3 antigen protein): 13.1 nM | koff (hB7H3 antigen protein): 0.00206 s⁻¹ | kon (hB7H3 antigen protein): 157000 M⁻¹ s⁻¹ | EC50 [3]: 1.29 nM

B8: N4 (antibody)
heavy: not shown
light: EIVLTQSPGTLSLSPGERATLSCRASQNINNRFLAWYQQRPGQAPRLLIYAASSRATGVPDRFSGSGSGTDFTLTISRLEAEDFAMYHCQQYGSFPRTFGQGTMVDIKQGSPPCFLRFPRPVRVVSGAEAELKCVVLGEPPPVVVWEKGGQQLAASERLSFPADGAEHGLLLTAALPTDAGVYVCRARNAAGEAYAAAAVTVLEPP
EC50 (CEA on MKN45 cells [1]): 4.6 nM | EC50 (CEA on MKN45 cells [2]): 5.93 nM

B9: N7 (antibody)
heavy: not shown
light: B8 light with C114E, V182C
EC50 (CEA on MKN45 cells [1]): 2.8 nM

B10: N8 (antibody)
heavy: not shown
light: B8 light with C114E, C134S, V182C, C185S
EC50 (CEA on MKN45 cells [1]): 2.6 nM

B11: h1831K (antibody, human IgG1, kappa, V domains shown)
VH: QVQLVQSGAEVKKPGASVKVSCKASGYTFTSYWMHWVRQAPGQGLEWMGRITPSSGFAMYNEKFKNRVTMTRDTSTSTVYMELSSLRSEDTAVYYCARGGSSYDYFDYWGQGTTVTVSS
VL: DIVLTQSPASLAVSPGQRATITCRASESVSIHGTHLMHWYQQKPGQPPKLLIYAASKLESGVPARFSGSGSGTDFTLTINPVEAEDTANYYCQQSFEDPLTFGQGTKLEIKR
notes: also called P-IgG1; PDL1 monoclonal antibody
Kd (human PDL1-his): 0.0417 nM | koff (human PDL1-his): 8.67e-05 s⁻¹ | kon (human PDL1-his): 2.08e+06 M⁻¹ s⁻¹

Results, then the binder that gave them:

EC50 (hP40): 0.0567 nM | EC50 (hBAFF): 0.469 nM
B1: BU2 (bispecific antibody, human IgG1, kappa, L234A L235A)
heavy 1: not shown
light 1: not shown
heavy 2: QVQLQQSGAEVKKPGSSVRVSCKASGGTFNNNAINWVRQAPGQGLEWMGGIIPMFGTAKYSQNFQGRVAITADESTGTASMELSSLRSEDTAVYYCARSRDLLLFPHHALSPWGRGTMVTVSSGGGGSGIPPKIECLPSDISIDEGKVLTVASAFTGEPTPEVTWSTGGRKIHSQEQGRFHIESTEDLTTLIISDVQKQDGGLYSLSLGNEFGSDSATVNIHIRSIDKTHTCPPCPAPEAAGGPSVFLFPPKPKDTLMISRTPEVTCVVVDVSHEDPEVKFNWYVDGVEVHNAKTKPREEQYNSTYRVVSVLTVLHQDWLNGKEYKCKVSNKALPAPIEKTISKAKGQPREPQVCTLPPSREEMTKNQVSLSCAVKGFYPSDIAVEWESNGQPENNYKTTPPVLDSDGSFFLVSKLTVDKSRWQQGNVFSCSVMHEALHNHYTQKSLSLSPGK
light 2: SSELTQDPAVSVALGQTVRVTCQGDSLRSYYASWYQQKPGQAPVLVIYGKNNRPSGIPDRFSGSSSGNTASLTITGAQAEDEADYYCSSRDSSGNHWVFGGGTELTVLGGGGSDQPQFSGAPRFLTRPLSYVVSVGKDASLSSQIVGNPTPQVSWEKDQLPVTAGARFRLAQDGDLYRLKILDLQLSDSGQYVSRARNAIGEAFACVGLEVGAEA

EC50 (hP40): 0.224 nM | EC50 (hBAFF): 0.413 nM
B2: BU3 (bispecific antibody, human IgG1, kappa, L234A L235A)
heavy 1: not shown
light 1: B1 light 2
heavy 2: EVQLVQSGAEVKKPGESLKISCKGSGYSFTTYWLGWVRQMPGKGLDWIGIMSPVDSDIRYSPSFQGQVTMSVDKSITTAYLQWNSLKASDTAMYYCARRRPGQGYFDFWGQGTLVTVSSASTKGPSVFPLAPSSKSTSGGTAALGCLVKDYFPEPVTVSWNSGALTSGVHTFPAVLQSSGLYSLSSVVTVPSSSLGTQTYICNVNHKPSNTKVDKKVEPKSCDKTHTCPPCPAPEAAGGPSVFLFPPKPKDTLMISRTPEVTCVVVDVSHEDPEVKFNWYVDGVEVHNAKTKPREEQYNSTYRVVSVLTVLHQDWLNGKEYKCKVSNKALPAPIEKTISKAKGQPREPQVCTLPPSREEMTKNQVSLSCAVKGFYPSDIAVEWESNGQPENNYKTTPPVLDSDGSFFLVSKLTVDKSRWQQGNVFSCSVMHEALHNHYTQKSLSLSPGK
light 2: not shown

EC50 (hP40): 0.0443 nM | EC50 (hBAFF): 0.506 nM
B3: BU4 (bispecific antibody, human IgG1, kappa, L234A L235A)
heavy 1: not shown
light 1: not shown
heavy 2: QVQLQQSGAEVKKPGSSVRVSCKASGGTFNNNAINWVRQAPGQGLEWMGGIIPMFGTAKYSQNFQGRVAITADESTGTASMELSSLRSEDTAVYYCARSRDLLLFPHHALSPWGRGTMVTVSSGGGGSKAGIRGIPPKIECLPSDISIDEGKVLTVASAFTGEPTPEVTWSTGGRKIHSQEQGRFHIESTEDLTTLIISDVQKQDGGLYSLSLGNEFGSDSATVNIHIRSIDKTHTCPPCPAPEAAGGPSVFLFPPKPKDTLMISRTPEVTCVVVDVSHEDPEVKFNWYVDGVEVHNAKTKPREEQYNSTYRVVSVLTVLHQDWLNGKEYKCKVSNKALPAPIEKTISKAKGQPREPQVCTLPPSREEMTKNQVSLSCAVKGFYPSDIAVEWESNGQPENNYKTTPPVLDSDGSFFLVSKLTVDKSRWQQGNVFSCSVMHEALHNHYTQKSLSLSPGK
light 2: B1 light 2

Kd (human TIGIT-his): 0.0651 nM | koff (human TIGIT-his): 0.000139 s⁻¹ | kon (human TIGIT-his): 2.14e+06 M⁻¹ s⁻¹
B4: h1708-04 (antibody, human IgG1, kappa, V domains shown)
VH: EVQLVQSGAEVKKPGASVKVSCKASGYTFTNYWMHWVRQAPGQGLEWMGRIDPDSTGSKYNEKFKTRVTMTRDTSTSTVYMELSSLRSEDTAVYYCAREGAYGYYFDYWGQGTLVTVSS
VL: DIQMTQSPSSLSASVGDRVTITCRASENIYSYLAWYQQKPGKSPKLLIYNARTLAEGVPSRFSGSGSGTDFTLTISSLQPEDFATYYCQYHSGSPLPFGGGTKVEIKR
notes: also called T-IgG1; TIGIT monoclonal antibody

EC50 (CEA on MKN45 cells [1]): 4.5 nM | EC50 (CEA on MKN45 cells [2]): 6.45 nM
B5: N3 (antibody)
heavy: not shown
light: EIVLTQSPGTLSLSPGERATLSCRASQNINNRFLAWYQQRPGQAPRLLIYAASSRATGVPDRFSGSGSGTDFTLTISRLEAEDFAMYHCQQYGSFPRTFGQGTMVDIKSGAPRFLTRPKAFVVSVGKDATLSCQIVGNPTPQVSWEKDQQPVAAGARFRLAQDGDLYRLTILDLALGDSGQYVCRARNAIGEAFAAVGLQVDAEA

EC50 (CEA on MKN45 cells [1]): 8.4 nM
B6: N6 (antibody)
heavy: not shown
light: B5 light with A111C, C133S, C184S
